These results are taken from the supplement of paper PMC9170038.

This series has as its system MS2 coat protein. Description: apparent KD of MS2 coat protein; designed switch direction (-1 OFF switch, 1 ON switch): 1; higher = weaker reporter binding. Summed up: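 Stalled E. coli RNA polymerase transcribed designed RNA switches on Illumina chips, which were then titrated with SNAP-549-labelled MS2 coat protein, doubling from 0.7 or 1.5 nM to 3 µM. Steps lasted from 0.8–1.5 h at the lowest concentration to 10–20 min at the highest. The apparent KD is each design's median over clusters of curve-fitted normalised fluorescence.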

Where [1] appears, read: input ligand: microRNA oligo, concentration not stated.
Setting [2] is: Eterna round: R95, input ligand: FMN 200 uM.
The mark [3] stands for this setting: Eterna round: R95, input ligand: microRNA oligo, concentration not stated.
The mark [4] stands for this setting: Eterna round: R95, input ligand: none.

As for “AAGAAAGUUUACGAGGAUAUGUUCCGCAUAACAUGAGGAUCACCCAUGUGAACAAGAAAGGCGACGCAGAAGGCGUGAGCAAAGA [Atanansori] (Eterna round: R96, puzzle: Same State 2)”, the “apparent KD of MS2 coat protein” value worked out at 0.0424 µM (input ligand: FMN 200 uM), 0.152 µM under setting [1] and 0.219 µM (input ligand: none).
Regarding “AAGAAGACGGACAAGGAUAUGUCAAAGGAAACAUGAGGAUCACCCAUGUGGAGAUUGGAAAAGAAACAGAAGGUGUACGGAGAGA [JR_SS2_Sub007] (puzzle: Same State 2)”, the “apparent KD of MS2 coat protein” value under setting [2] was found to be 0.0106 µM, the “apparent KD of MS2 coat protein” value under setting [3] came to 0.0123 µM and the “apparent KD of MS2 coat protein” value under setting [4] came out at 0.0293 µM.
For “AAGAGAGGAAGCGAGGAUAUCGUGGGAGGGACAUGAGGAUCACCCAUGUAGGAUGUUGAGAGGAACGAGAAGGCGCAGGAAAGAA [JR_SS2_Sub074] (puzzle: Same State 2)” the same measures were 0.0874 µM, 0.0733 µM and 0.0961 µM.
With “AAGCUCGUGUGAGGAUAUGCCGCCGUUUCGGCUGCAGAAGGUGCUACGUUACAUGAGGAUCACCCAUGUCUCUGUUGUUUCGUA [salish99_SSNG1_r04_952] (Eterna round: R96, puzzle: Same State NG 1)”, under setting [1], the “apparent KD of MS2 coat protein” value was found to be 0.037 µM.
Regarding “AAGUAGGAGUUACAGGAUAUAUGGAGGAGGACAUGAGGAUCACCCAUGUGAGAGAUGAGAGGAGGAUAGAAGGGUAAGGGAGUAA [JR_SS2_Sub027] (puzzle: Same State 2)”, the “apparent KD of MS2 coat protein” value runs as follows: under setting [2], 0.0241 µM; under setting [3], 0.0209 µM; under setting [4], 0.032 µM.
In the case of “AAUUAAGAUUAAGGAUAUCACGUCGUUUAGACGUGAGAAGGUGAUCAUAACAUGAGGAUCACCCAUGUAUUACAUGAAUUAAUU [SSNG1/3-B3] (Eterna round: R96, puzzle: Same State NG 1)”, the “apparent KD of MS2 coat protein” value by setting is: (input ligand: FMN 200 uM) 1.04 µM; under setting [1], 0.284 µM; (input ligand: none) 1.19 µM.
With “AAUUUAAUACAUGAGGAUCACCCAUGUAAUACUUGUAAGAUCAAGGAUAUCAGCUCGUUUAGAGCUGAGAAGGUGAUCACAUGU [SSNG3/19-D3] (Eterna round: R96, puzzle: Same State NG 3)”, the “apparent KD of MS2 coat protein” value under setting [1] worked out at 0.0407 µM.
On to “AAUUUCUAGAGAGGAUAUGCAGAGGAUCACCCUGCAGAAGGCUCGAGAGAGAGGAUAUGCAGAGGAUCACCCUGCAGAAGGCUC [pwkr ssNG DX.29] (Eterna round: R96, puzzle: Same State NG 1)”, for which the “apparent KD of MS2 coat protein” value came to 0.0145 µM (input ligand: FMN 200 uM), 0.0147 µM under setting [1] and 0.0184 µM (input ligand: none).
In the case of “AAUUUGGGACAUGAGGAUCACCCAUGUAUUAUAAAUGGGACAAGUUUUUUGCUCGUCUUAUACAUGGGUGAAAAUCU [Test] (puzzle: Sensor for hsa-mir-208a version 2)”, the “apparent KD of MS2 coat protein” value under setting [2] amounted to 0.0178 µM, the “apparent KD of MS2 coat protein” value under setting [3] was determined as 0.0217 µM and the “apparent KD of MS2 coat protein” value under setting [4] was 0.0237 µM.
The like results for “ACAAGCUUUUCUGUAUUGAAAGGUGGGAUACAUGAGGAUCACCCAUGUUUGUUUGUUUAUUGUUUUCCUCGUCUUAU [JR_SHM208A_Sub089] (puzzle: Sensor for hsa-mir-208a)” were, in that order, 0.071 µM, 0.0275 µM and 0.0662 µM.
The like results for “ACAAGCUUUUUAGGAAGAGAAGAAAGGGAACAUGAGGAUCACCCAUGUAAGUGGAAUGAAGAAGGAGCACGUCUUAU [JR_SHM208A_Sub096] (puzzle: Sensor for hsa-mir-208a)” were, in that order, 0.0542 µM, 0.0175 µM and 0.061 µM.
For the sequence “ACAUGAGACCGAGGAUAUAUUGUACCUACAUGUGACAUGAGGAUCACCCAUGUGGUAAGUAUGACAUAGAAGGCGGAGAUAUGU [Equivalance 92 - Jieux - Same State NG 2] (Eterna round: R96, puzzle: Same State NG 2)”, the “apparent KD of MS2 coat protein” value is 0.0196 µM (input ligand: FMN 200 uM), 0.0259 µM under setting [1] and 0.0301 µM (input ligand: none).
For “ACAUGAGACUCAGGAUAUCAUGUACCUACAUGUGACAUGAGGAUCACCCAUGUGGUAAGUAUGACUGAGAAGGGAGAGAUAUGU [Equivalance 88 - Jieux - Same State NG 2] (Eterna round: R96, puzzle: Same State NG 2)” the same measures were 0.0637 µM, 0.159 µM and 0.248 µM.
For “ACAUGAGACUCAGGAUAUCUUGUACCUACAUGUGACAUGAGGAUCACCCAUGUGGUAAGUAUGACAGAGAAGGGAGAGAUAUGU [Equivalance 87 - Jieux - Same State NG 2] (Eterna round: R96, puzzle: Same State NG 2)” the same measures were 0.0267 µM, 0.0472 µM and 0.0641 µM.
For “ACAUGAGAGAAAGGAUAUCUUGUACCUACAUGUGACAUGAGGAUCACCCAUGUGGUAAGUAUGACGGAGAAGGUUCAGAUAUGU [Equivalance 72 - Jieux - Same State NG 2] (Eterna round: R96, puzzle: Same State NG 2)”, the “apparent KD of MS2 coat protein” value (input ligand: FMN 200 uM) was determined as 0.0771 µM, the “apparent KD of MS2 coat protein” value under setting [1] came to 0.125 µM and the “apparent KD of MS2 coat protein” value (input ligand: none) turned out to be 0.154 µM.
For “ACAUGAGAGAUAGGAUAUGUUGUACCUACAUGUGACAUGAGGAUCACCCAUGUGGUAAGUAUGAGGCAGAAGGAUCAGAUAUGU [Equivalence 41 - Jieux - Same State NG 2] (Eterna round: R96, puzzle: Same State NG 2)” the same measures were 0.0292 µM, 0.0681 µM and 0.0881 µM.
For “ACAUGAGAGUGAGGAUAUACUGUACCUACAUGUGACAUGAGGAUCACCCAUGUGGUAAGUAUGACGUAGAAGGCACAGAUAUGU [Equivalance 79 - Jieux - Same State NG 2] (Eterna round: R96, puzzle: Same State NG 2)” the same measures were 0.0331 µM, 0.118 µM and 0.182 µM.
For “ACAUGAGGAUCACCCAUGUAUGCUCAGGAAACUGUGCAUCGUGAGGAUAUGGAUCCUAAUUGGAUCCAGAAGGCAUGUAUUAUU [Fiskers NG3ss - 27] (Eterna round: R96, puzzle: Same State NG 3)” the same measures were 0.321 µM, 0.0239 µM and 0.153 µM.
Turning to “ACAUGAGGAUCACCCAUGUCGGAUAAGGAAACGACCACGUGGGAGGAUAUUGUAACGCGUCUGUACGAGAAGGCCCAUUCCAGU [Eternabot solution 42] (Eterna round: R96, puzzle: Same State NG 3)”, the “apparent KD of MS2 coat protein” value was determined as 0.0292 µM (input ligand: FMN 200 uM), 0.0668 µM under setting [1] and 0.0808 µM (input ligand: none).
Take “ACCCGCGGGCCACAUGAGGAUCACCCAUGUGACCGGUGAUCCAAGGAUAUGUGUAGGGUAGAUGCACAGAAGGUGGCCAAAACU [Ainriqu] (Eterna round: R96, puzzle: Same State NG 3)”: the “apparent KD of MS2 coat protein” value is, setting by setting: (input ligand: FMN 200 uM) 0.0266 µM; under setting [1], 0.0148 µM; (input ligand: none) 0.0185 µM.
For “ACCGAGAGGCUAGGAUAUUAGGGCAUUUGCAUAUGAGAAGGAGCCAGAUGGCCACAUGAGGAUCACCCAUGUCAACCCUGGACA [Eternabot solution 4] (Eterna round: R96, puzzle: Same State NG 1)” the same measures were 0.0225 µM, 0.0129 µM and 0.0182 µM.
For “ACGCAGCUAGGUGAGGAUAUCGGUGGUAAAACAUGAGGAUCACCCAUGUCCGAAGCUCGGACUUCCGAGAAGGCGCCCGGCUGCA [Velaberi] (Eterna round: R96, puzzle: Same State 2)” the same measures were 0.0127 µM, 0.0788 µM and 0.106 µM.
In the case of “ACGCAGCUAGGUGAGGAUAUCGGUGGUAAAACAUGAGGAUCACCCAUGUCCGAAGCUCGGACUUCCGAGAAGGCGCCCGGCUGCA [Velaberi] (puzzle: Same State 2)”, the “apparent KD of MS2 coat protein” value under setting [2] came out at 0.0139 µM, the “apparent KD of MS2 coat protein” value under setting [3] came to 0.0642 µM and the “apparent KD of MS2 coat protein” value under setting [4] came out at 0.0962 µM.
As for “ACUUAGUACAAUUUAGAUCUACAUGAGGAUCACCCAUGUACUGAGGAUAUCAGCUCGAUUAGAGCUGAGAAGGCAGAAGUACUU [SSNG3/8-A2] (Eterna round: R96, puzzle: Same State NG 3)”, the “apparent KD of MS2 coat protein” value was 0.0454 µM (input ligand: FMN 200 uM), 0.159 µM under setting [1] and 0.22 µM (input ligand: none).
For “AGAAGACAUGAGGAUCACCCAUGUACCUCAUAAGGAGAGAGCGAGGAUAUGUAGAGAGAGAGGGAGCAGAAGGUGUGGGAGGAA [Default title] (Eterna round: R96, puzzle: Same State NG 3)” the same measures were 0.283 µM, 0.192 µM and 0.262 µM.
As for “AGAAUACAUGAGGAUCACCCAUGUCAACGUAGUCGAGGAUAUGGGCAGCCGUGAGGCGUACUAGAAGGCGAAGAGA [Mat - Same State 1 - Mod of JL - D6] (puzzle: Same State 1)”, the “apparent KD of MS2 coat protein” value was 0.0998 µM under setting [2], 0.437 µM under setting [3] and 0.28 µM under setting [4].
The like results for “AGAGAACAUGAGGAUCACCCAUGUAGGAUGGGCAUAGGAUAUAGAGGAAUGAGGGAGGAGCUAGAAGGAUGAUGGA [JR_SS1_Sub078] (puzzle: Same State 1)” were, in that order, 0.11 µM, 0.192 µM and 0.145 µM.
